Data taken from IntAct's records for PubMed 12361576.

B1: Cofilin-1-A (Xenopus laevis (African clawed frog)), P45695 (parent)
chain: MASGVMVSDDVIKVFNEMKVRHQLSPEDAKKRKKAVVFCLSDDKKTIILEPGKEILQGDIGCNVEDPYKTFVKMLPRNDCRYALYDALYETKETKKEDLVFVFWAPEEASLKSKMIYASSKDAIKKRLPGIKHEWQINTYEDVNDPCNLADKLGGNTVVSLEGKSVRS

Variants of: B1
Settings: with 1433z_bovin YWHAZ

Variant | effect of a mutation on the interaction
S3A | decreasing interaction
